We go through one molecule from US20150216891A1 (INSTITUT NATIONAL DE LA SANTE ET DE LA RECHERCHE MEDICALE …, published 2015).

For this assay, the target named is T1, Translationally-Controlled Tumor Protein (TCTP) (human, UniProt P13693 1-172).
T1 construct: Endogenous TCTP in LNCaP cell lysates, immunoprecipitated with rabbit anti-TCTP antibody (Abcam); also called translationally-controlled tumour protein
T1 sequence: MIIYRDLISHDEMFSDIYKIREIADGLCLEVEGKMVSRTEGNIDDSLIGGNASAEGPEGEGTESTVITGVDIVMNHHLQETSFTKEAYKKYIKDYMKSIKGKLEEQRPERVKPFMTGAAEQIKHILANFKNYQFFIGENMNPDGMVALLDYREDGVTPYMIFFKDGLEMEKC
In words: not named at this place (co-immunoprecipitation of Example 12).

B1: Hsp27 C1 deletion mutant (amino acids 93 to 205 of SEQ ID NO: 16), histidine-tagged (other, not shown: small tags and cut ends)
chain: DRWRVSLDVNHFAPDERTVKTKDGVVEISGKHEELQDEHGYISRCFTRKYTLPPGVDPTQVSSSLSPEGTLTVEAPMPKLATQSNEITIPVTFESRAQLGGPEAAKSDETAAK
notes: Transiently expressed in LNCaP cells
On to B1, for which the binding result was “binds”.
